Assay [1] deals with T1, BRD2 SBC motif-deleted mutant (human, UniProt P25440 1-801, limits assumed).
T1 construct: The deleted residues are not numbered in the text; also called FLAG-BRD2 mutant; not shown: FLAG tag
Description: co-IP (anti-FLAG) in 293T cells.

Assay [2] concerns the target T2, BRD3 SBC motif-deleted mutant (human, UniProt Q15059 1-726, limits assumed).
T2 construct: The deleted residues are not numbered in the text; also called FLAG-BRD3 mutant; not shown: FLAG tag
Kind of assay: co-IP (anti-FLAG) in 293T cells.

The target of assay [3] is T3, BRD4 SBC motif-deleted mutant (human, UniProt O60885 1-1362, limits assumed).
T3 construct: The deleted residues are not numbered in the text; also called FLAG-BRD4 mutant; not shown: FLAG tag
Description: co-IP (anti-FLAG) in 293T cells.

The next assay concerns the target T4, BRD2 (human, UniProt P25440 1-801).
T4 construct: One entry covers endogenous and FLAG-tagged full-length BRD2; also called FLAG-BRD2; Flag-BRD2
Description: figure legend title; yeast two-hybrid and co-IP. How it is done: (§1) A total of 2×10⁷ independent clones were screened by growth in deficient medium and X-gal staining. The positive clones were subsequently retested in fresh yeast cells, and the identities of prey were determined with interaction sequence tags (ISTs) obtained by DNA sequencing. The reading frame was verified.
(§2) To immunoprecipitate the ectopically expressed FLAG-tagged proteins, transfected cells were lysed 24 hours post-transfection in BC100 buffer. The whole-cell lysates were immunoprecipitated with the monoclonal anti-FLAG antibody-conjugated M2 agarose beads (Sigma-Aldrich) at 4° C. overnight. After three washes with lysis buffer, followed by two washes with BC100 buffer, the bound proteins were eluted using FLAG-Peptide (Sigma-Aldrich) prepared in BC100 for 3 hours at 4° C. The eluted protein sample was resolved by SDS-PAGE. To immunoprecipitate the endogenous proteins, cells were lysed with 1× cell lysis buffer (Cell Signaling Technology), and the lysate was centrifuged. The supernatant was precleared with protein A/G beads (Sigma-Aldrich) and incubated with the indicated antibody and protein A/G beads at 4° C. overnight. Beads were washed five times with lysis buffer and resuspended in sample buffer and analyzed by SDS-PAGE.

The target in a further assay is T5, BRD3 (human, UniProt Q15059 1-726).
T5 construct: One entry covers endogenous and FLAG-tagged full-length BRD3; also called FLAG-BRD3; Flag-BRD3
Description: co-IP, ectopic in 293T and endogenous in LNCaP cells. The procedure:
as §2

The next assay has as its target T6, DEK (human, UniProt P35659 2-375, limits assumed).
T6 construct: Positive clone of the yeast two-hybrid screen
T6 sequence (looked up): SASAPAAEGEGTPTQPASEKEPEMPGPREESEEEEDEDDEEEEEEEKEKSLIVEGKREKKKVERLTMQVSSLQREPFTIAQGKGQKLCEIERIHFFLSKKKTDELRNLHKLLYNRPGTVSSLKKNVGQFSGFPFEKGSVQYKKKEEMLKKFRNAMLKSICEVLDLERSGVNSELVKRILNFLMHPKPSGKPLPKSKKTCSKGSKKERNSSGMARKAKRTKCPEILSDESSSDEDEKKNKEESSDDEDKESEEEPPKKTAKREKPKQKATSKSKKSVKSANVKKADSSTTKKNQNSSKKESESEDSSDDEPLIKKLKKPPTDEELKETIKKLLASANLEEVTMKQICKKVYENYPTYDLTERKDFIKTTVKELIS
Description: yeast two-hybrid screen, human fetal brain cDNA library. How it is done:
as §1

The next assay concerns the target T7, SRC-3 (human, UniProt Q9Y6Q9 2-1424, limits assumed).
T7 construct: Positive clone of the yeast two-hybrid screen
The description is as above. The procedure:
as §1

B1: SPOP (speckle-type POZ polypeptide), wild-type (other, human, UniProt O43791 1-374, looked up)
chain: MSRVPSPPPPAEMSSGPVAESWCYTQIKVVKFSYMWTINNFSFCREEMGEVIKSSTFSSGANDKLKWCLRVNPKGLDEESKDYLSLYLLLVSCPKSEVRAKFKFSILNAKGEETKAMESQRAYRFVQGKDWGFKKFIRRDFLLDEANGLLPDDKLTLFCEVSVVQDSVNISGQNTMNMVKVPECRLADELGGLWENSRFTDCCLCVAGQEFQAHKAILAARSPVFSAMFEHEMEESKKNRVEINDVEPEVFKEMMCFIYTGKAPNLDKMADDLLAAADKYALERLKVMCEDALCSNLSVENAAEILILADLHSADQLKTQAVDFINYHASDVLETSGWKSMVVSHPHLVAEAYRSLASAQCPFLGPPRKRLKQS
notes: also called SPOP-WT; wild-type SPOP
Turning to B1, the binding result in assay [1] is on record as “no binding”; in assay [2], “no binding”; in assay [3] it was “no binding”; with BRD2 it was “binds”; in the assay with BRD3, “binds”; with DEK, “binds”. The binding result with SRC-3 is on record as “binds”.

The values above are taken from US20220016130A1 (MAYO FOUNDATION FOR MEDICAL EDUCATION AND RESEARCH, published 2022).
